From PMC10325919 (2023) come the findings set out here.

The target of this experiment is T1, E. coli expressed BAHD1(aa:588–780) (UniProt Q8TBE0 588-780).
T1 chain: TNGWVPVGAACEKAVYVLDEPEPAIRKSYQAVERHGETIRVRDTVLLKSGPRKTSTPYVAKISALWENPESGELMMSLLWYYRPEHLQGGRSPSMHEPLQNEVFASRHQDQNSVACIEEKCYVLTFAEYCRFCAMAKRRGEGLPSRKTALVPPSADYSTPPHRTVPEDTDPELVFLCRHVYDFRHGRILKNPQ
The experiment in a line: FP.

Starred links: 1 amine or outer side, 2 acyl side, 3 side chain; linkers in the order of their positions; H or OH if unused. Non-standard residues stand in square brackets, D forms with d. No end group written: not given here. Lys(Me3) = C[N+](C)(C)CCCC[C@H](N)C(=O)O; Ethylenediamine = C(CN[*:2])N[*:1]; 5‑FAM = 5-carboxyfluorescein; GABA = NCCCC(=O)O

For the molecule PRKQLATKAAR[Lys(Me3)]SAPATGG-{Ethylenediamine-GABA-5‑FAM} [H3 16–35 K27me3 peptide], the Kd (in general, the concentration at which binding is half-saturated) was 700 nM.
